Columns and labels:
Test in all cases: ELISA
Design in all cases: key to grade: 0 = <0.5 OD, 1 = 0.5-1.0 OD, 4 = 1-4 OD
[1] = target: T1, PIN574 fully human Id protein (HV4-39 / LV1-40) (human)
T1 construct: Recombinant patient-derived idiotype immunoglobulin used as antigen, fully human form; also called Immunogen (for 20H5); not shown: human immunoglobulin heavy chain constant region, isotype G3 (HCG3); human immunoglobulin lambda light chain constant region (LC)
Text: (§1) Before specificity screening, all of the clonal immunogen-positive hybridoma supernatants were re-screened on the immunogen, a non-family member Id protein, and KLH, if animals were immunized with Id protein that has been conjugated KLH. As described above, this screen identifies HC-specific clones but not mAbs against the light chain constant region. Clones identified positive to the immunogen and KLH were […]. Those found positive to the immunogen but not to the non-family member Id protein or KLH were tittered on the immunogen. In addition to normalizing for different binding affinities and concentrations, each hybridoma supernatant was titered on the fully human form of the Id protein used as the immunogen(s) for the V regions. The titer or dilution resulting in an ELISA absorbance of 2.5 to 3 OD after 30 min. incubation time was then used. Hybridoma specificity was determined by screening against available Id proteins expressing the same HV and KV or LV as well as different HV, KV and LV. The final ELISA results are expressed as follows: 0 (<0.5 OD), 1 (0.5-1.0 OD), or 4 (1-4 OD). Positive hybridoma supernatants are categorized according to specificity: anti-Id, anti-constant region (HC, KC or LC), or V region (HV, KV, LV family or family member).
(§2) In general, the fully human Id protein or proteins containing the immunogen V regions were coated onto 96-well ELISA plates at 2.5-5 ug/mL in carbonate buffer pH 9.6 and incubated at 4° C. for up to 14 days. On the day of the ELISA, plates were brought to RT and blocked with Tris-Tween-20, pH 7.6 for 15-60 min. at RT. Following a NaCl and Triton X-100 wash, diluted hybridoma cell culture supernatants were incubated overnight at 4° C. Hybridoma supernatant dilutions ranged from 1:2 to 1:25 and were prepared in PBS with 5% BSA. Plates were washed and incubated with HRP-conjugated goat anti-mouse IgG-specific detecting antibody. A chromogenic substrate (TMB) was used to measure the amount of mouse antibody bound to each well. The reaction was stopped at or before 30 minutes with IN H2SO4 and plates were read immediately. Absorbency readings at 450 nm ranging between 0-4 OD and using Molecular Devices plate reader and SOFTMAX PRO software.

[2] = target: T2, 231
T2 construct: H3-48 L2-14; also called PIN231
Text: as §1, §2

[3] = target: T3, 305
T3 construct: H3-48 L1-40; also called PIN305
Text: as §1, §2

[4] = target: T4, 625
T4 construct: H4-61 L2-8; also called PIN625
Text: as §1, §2

[5] = target: T5, 604
T5 construct: H4-34 L2-8; also called PIN604
Text: as §1, §2

[6] = target: T6, 534
T6 construct: H3-11 L1-47; also called PIN534
Text: as §1, §2

[7] = target: T7, 733
T7 construct: H3-48 L2-14; also called PIN733
Text: as §1, §2

[8] = target: T8, 1131
T8 construct: H4-31 L3-25; also called PIN1131
Text: as §1, §2

[9] = target: T9, 1089
T9 construct: H3-73 L2-23; also called PIN1089
Text: as §1, §2

[10] = target: T10, 1167
T10 construct: H3-23 L2-14; also called PIN1167
Text: as §1, §2

[11] = target: T11, 102
T11 construct: H1-18 L1-44; also called PIN102
Text: as §1, §2

[12] = target: T12, 551
T12 construct: H3-23 L1-40; also called PIN551
Text: as §1, §2

[13] = target: T13, 1060
T13 construct: H4-39 L2-23; also called PIN1060
Text: as §1, §2

[14] = target: T14, 1056
T14 construct: H3-48 L2-14; also called PIN1056
Text: as §1, §2

[15] = target: T15, 196
T15 construct: H4-31 L2-23; also called PIN196
Text: as §1, §2

[16] = target: T16, 857
T16 construct: H5-51 L2-14; also called PIN857
Text: as §1, §2

[17] = target: T17, 1067
T17 construct: H1-8 L2-23; also called PIN1067
Text: as §1, §2

[18] = target: T18, 747
T18 construct: H3-23 L2-14; also called PIN747
Text: as §1, §2

T1 sequence (VH, as listed by the source, chain 1 of 2): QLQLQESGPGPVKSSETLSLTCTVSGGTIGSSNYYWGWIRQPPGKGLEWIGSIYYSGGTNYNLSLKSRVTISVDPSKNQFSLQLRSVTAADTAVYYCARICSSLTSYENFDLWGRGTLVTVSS
T1 sequence (VL, as listed by the source, chain 2 of 2): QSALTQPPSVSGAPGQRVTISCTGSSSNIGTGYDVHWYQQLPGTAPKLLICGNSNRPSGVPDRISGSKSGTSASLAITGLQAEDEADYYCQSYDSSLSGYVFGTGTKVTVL

B1: mAb clone 4H11 (antibody, V domains shown)
VH: EVKLVESGGGLVKPGGSLKLSCAASGFAFSNYDMSWVRQTPEKRLEWVATIRSDDSYTYYPDSVKGRFTISRDNARNTLYLQMSSLRSEDTAFYYCARREGNYAMDYWGQGTSVTVSS
VL: DIQMTQSPASLSVSVGETVTITCRASENIYSYLAWYQQKKGKSPQLLVYAATNLGDGVPTRFSGSGSGTQYSLKINSLQSEDFGSYYCQHFWGNPLTFGAGTKLELKR
notes: Mouse hybridoma mAb
B1 was tested. Which grade [1] did it give?
The grade was 4.

What about the grade [2] of the same binder?
The grade was 4.

What about the grade [3] of the same binder?
Its grade is 4.

What about the grade [4] of the same binder?
Its grade is 4.

What about the grade [5] of the same binder?
The grade was 4.

And the grade [6]?
Its grade is 4.

What about the grade [7] of the same binder?
The grade was 4.

What about the grade [8] of the same binder?
The grade was 4.

What about the grade [9] of the same binder?
The grade was 4.

What about the grade [10] of the same binder?
Its grade is 4.

What about the grade [11] of the same binder?
The grade was 4.

And the grade [12]?
Its grade is 4.

What about the grade [13] of the same binder?
The grade was 4.

And the grade [14]?
The grade was 4.

And the grade [15]?
The grade was 4.

And the grade [16]?
Its grade is 4.

And the grade [17]?
Its grade is 4.

What about the grade [18] of the same binder?
Its grade is 1.
